Experimental data reported in PMC2650427 (Bioconjugate chemistry, 2008).

Test: Determination of q by luminescence lifetime measurements
Assay type: physicochemical
Conditions: emission 544 nm, excitation 229 nm, 25 scans averaged, monoexponential fit

| Substance | kD2O (luminescence decay rate in D2O) | kH2O (luminescence decay rate in H2O) |
| --- | --- | --- |
| Tb(III)-DOTA-Arg8 [compound 10] | 0.315 ms^−1 | 0.566 ms^−1 |
| Tb(III)-DOTA-SS-Arg8 [compound 12] | 0.397 ms^−1 | 0.644 ms^−1 |
| Tb(III)-DTPA-Arg8 [compound 11] | 0.331 ms^−1 | 0.635 ms^−1 |
| Tb(III)-DTPA-SS-Arg8 [compound 13] | 0.390 ms^−1 | 0.671 ms^−1 |
